Assay results published in the supplement of paper PMC10567573.

B1: TEKT4 (parent)
chain: YARYHQAFADRDQSERQRHESQQL
B2: TRIM14 (parent)
chain: REQADSCREQLDIMNDLSNRVWSI

Variants of: B1
Assay: protein stability index of a GFP-peptide fusion (GPS, HEK-293T) (PSI 1-6); higher = more stable
Conditions: c terminus: a fixed tail appended
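Also: lentivirally expressed fusions sorted by FACS into six bins by GFP to DsRed ratio, PSI derived from sequencing read proportions per bin multiplied by bin number.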

Protein stability index of substitutions, site by site:
Y4: S 3.44, N 2.99, H 2.36, V 3.51, Q 3.85, I 3.32, E 4.1, R 3.81, D 3.46, L 2.92, F 2.12, G 3.08, C 2.39, M 3.21, P 4, T 2.8, K 3.78, A 3.28, W 1.6
H5: V 2.87, Y 2.6, L 3.47, I 3.29, C 2.39, A 1.91, P 2.98, K 2.88, W 3.19, E 4.54, M 3.43, R 3, N 2.3, G 1.44, D 4.57, Q 2.98, F 2.5, S 2.16, T 3.6
R3: D 3, I 3.4, H 2.64, P 1.6, S 2.36, N 2.79, E 2.06, F 2.38, W 2.2, V 3.11, C 2.84, Q 2.57, Y 2.88, K 2.3, M 2.6, A 2.85, T 2.79, L 2.97, G 1.98
Q6: F 3.06, W 2.08, K 2.31, D 2.73, S 1.77, I 2.24, A 1.62, V 2.69, L 2.02, R 2.26, P 2.69, Y 2.54, E 2.62, H 2.25, G 2.64, T 2.34, C 2.02, N 2.28, M 2.32
Y1: E 5, P 5.02, K 4.76, F 2.07, S 4.87, H 4.54, T 4.62, L 4.55, G 5.11, D 5.23, A 3.9, W 3.69, Q 4.76, I 4.55, V 4.91, R 4.08, N 4.9, C 3.46, M 4.44
A2: T 1.67, C 1.48, Q 1.84, R 4.27, E 4.29, D 4.3, F 2.87, M 2.27, W 2.68, H 4.12, I 2.5, Y 3.58, S 1.92, L 2.09, P 2.7, N 2.85, K 3.82, V 1.87
A7: D 3.7, C 2.88, F 2.99, G 3.18, H 2.2, E 3.72

Variants of: B2
Assay: as above
Conditions: c terminus: a fixed tail appended

Protein stability index, by site and new letter:
S23: E 2.65, K 2.09, H 2.07, M 2.22, D 4.14, A 2.09, G 2.66, C 2.57, R 2.11, T 1.84, Y 1.92, Q 2.68, V 3.3, F 2.03, W 3.05, N 2.71, P 3.48, L 2.81, I 2.75
W22: S 4.21, T 4.13, P 4.32, L 3, R 4.28, V 3.14, M 3.29, N 3.72, Y 2.78, Q 4.12
I24: V 2.17, R 3.44, C 2.53, G 3.72, E 3.68, K 3.55, L 2.46, W 2.31, S 3.46, D 4.01, A 2.89, Q 3.34, Y 2.53, M 2.79, T 4.01, N 3.95, P 3.64, H 3.6, F 2.25
